Consider one molecule from patent US20220026447A1 (SOONCHUNHYANG UNIVERSITY INDUSTRY ACADEMY COOPERATION …, published 2022).

The target of data set [1] is T1, human FUS (fused in sarcoma) protein (human, UniProt P35637 1-526).
T1 construct: Human FUS was expressed in Drosophila neurons with the elav-Gal4 driver and seen as cytoplasmic aggregates; also called human wild-type FUS; FUS aggregate
T1 sequence: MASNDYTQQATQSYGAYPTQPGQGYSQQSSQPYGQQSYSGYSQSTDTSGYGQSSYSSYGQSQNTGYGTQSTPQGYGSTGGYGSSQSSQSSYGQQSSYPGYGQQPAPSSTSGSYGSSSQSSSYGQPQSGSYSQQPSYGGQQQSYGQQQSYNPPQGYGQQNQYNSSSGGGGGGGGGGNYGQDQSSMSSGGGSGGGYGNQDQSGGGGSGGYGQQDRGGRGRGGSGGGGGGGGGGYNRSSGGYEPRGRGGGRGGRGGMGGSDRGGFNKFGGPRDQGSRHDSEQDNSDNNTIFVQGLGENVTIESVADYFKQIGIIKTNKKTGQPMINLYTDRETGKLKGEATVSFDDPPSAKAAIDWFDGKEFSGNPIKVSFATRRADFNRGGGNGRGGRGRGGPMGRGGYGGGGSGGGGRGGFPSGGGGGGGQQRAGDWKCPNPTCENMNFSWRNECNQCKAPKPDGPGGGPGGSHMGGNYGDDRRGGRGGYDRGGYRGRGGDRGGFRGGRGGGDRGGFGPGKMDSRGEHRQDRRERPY
Kind of data set: immunofluorescence co-localisation in Drosophila brain neurons (anti-GstO2 / anti-FUS).

In data set [2] the target is T2, human FUS (fused in sarcoma) protein.
T2 chain: T1 sequence

B1: Drosophila omega class glutathione transferase 2 (GstO2) (enzyme)
chain: MALPQKHFKRGSTKPELPEDGVPRFFSMAFCPFSHRVRLMLAAKHIEHHKIYVDLIEKPEWYKDFSPLGKVPALQLTGVKDQPTLVESLIIAEYLDQQYPQTRLFPTDPLQKALDKILIERFAPVVSAIYPVLTCNPNAPKDAIPNFENALDVFEVELGKRGTPYFAGQHIGIVDYMIWPWFERFPSMKINTEQKYELDTKRFEKLLKWRDLMTQDEVVQKTALDVQLHAEFQKSKTLGNPQYDIAFKGTP
notes: also called endogenous GstO2
With B1, the binding result in data set [1] was “binds”. Besides, in data set [2], the “FUS glutathionylation and FUS aggregate formation (double immunofluorescence of fly brain tissue, anti-FUS / anti-GSH)” value was “GstO2 coexpression inhibits an increase in formation of a FUS aggregate, and reduces FUS glutathionylation”.
